# Data: US20140274782A1, “AFFINITY REAGENTS AND METHODS FOR DETECTION, PURIFICATION, AND PROTEOMIC ANALYSIS OF METHYLATED PROTEINS” (The Board of Trustees of the Leland Stanford Junior …, priority 2013, published 2014)
# B1: SRP14 (protein, UniProt P37108 2-136, looked up)
# Signal recognition particle …: VLLESEQFLTELTRLFQKCRTSGSVYITLKKYDGRTKPIPKKGTVEGFEPADNKCLLRATDGKKKISTVVSSKEVNKFQMAYSNLLRANMDGLKKRDKKNKTKKTKAAAAAAAAAPAAAATAPTTAATTAATAAQ
# B2: MCM3 (protein, UniProt P25205 2-808, looked up)
# DNA replication licensing …: AGTVVLDDVELREAQRDYLDFLDDEEDQGIYQSKVRELISDNQYRLIVNVNDLRRKNEKRANRLLNNAFEELVAFQRALKDFVASIDATYAKQYEEFYVGLEGSFGSKHVSPRTLTSCFLSCVVCVEGIVTKCSLVRPKVVRSVHYCPATKKTIERRYSDLTTLVAFPSSSVYPTKDEENNPLETEYGLSVYKDHQTITIQEMPEKAPAGQLPRSVDVILDDDLVDKAKPGDRVQVVGTYRCLPGKKGGYTSGTFRTVLIACNVKQMSKDAQPSFSAEDIAKIKKFSKTRSKDIFDQLAKSLAPSIHGHDYVKKAILCLLLGGVERDLENGSHIRGDINILLIGDPSVAKSQLLRYVLCTAPRAIPTTGRGSSGVGLTAAVTTDQETGERRLEAGAMVLADRGVVCIDEFDKMSDMDRTAIHEVMEQGRVTIAKAGIHARLNARCSVLAAANPVYGRYDQYKTPMENIGLQDSLLSRFDLLFIMLDQMDPEQDREISDHVLRMHRYRAPGEQDGDAMPLGSAVDILATDDPNFSQEDQQDTQIYEKHDNLLHGTKKKKEKMVSAAFMKKYIHVAKIIKPVLTQESATYIAEEYSRLRSQDSMSSDTARTSPVTARTLETLIRLATAHAKARMSKTVDLQDAEEAVELVQYAYFKKVLEKEKKRKKRSEDESETEDEEEKSQEDQEQKRKRRKTRQPDAKDGDSYDPYDFSDTEEEMPQVHTPKTADSQETKESQKVELSESRLKAFKVALLDVFREAHAQSIGMNRLTESINRDSEEPFSSVEIQAALSKMQDDNQVMVSEGIIFLI
# B3: LSM12 (protein, UniProt Q3MHD2 2-195, looked up)
# Protein LSM12: AAPPGEYFSVGSQVSCRTCQEQRLQGEVVAFDYQSKMLALKCPSSSGKPNHADILLINLQYVSEVEIINDRTETPPPLASLNVSKLASKARTEKEEKLSQAYAISAGVSLEGQQLFQTIHKTIKDCKWQEKNIVVMEEVVITPPYQVENCKGKEGSALSHVRKIVEKHFRDVESQKILQRSQAQQPQKEAALSS
# B4: PRDX2 (protein, UniProt P32119 2-198, looked up)
# Peroxiredoxin-2: ASGNARIGKPAPDFKATAVVDGAFKEVKLSDYKGKYVVLFFYPLDFTFVCPTEIIAFSNRAEDFRKLGCEVLGVSVDSQFTHLAWINTPRKEGGLGPLNIPLLADVTRRLSEDYGVLKTDEGIAYRGLFIIDGKGVLRQITVNDLPVGRSVDEALRLVQAFQYTDEHGEVCPAGWKPGSDTIKPNVDDSKEYFSKHN
# B5: SF3B3 (protein, UniProt Q15393 1-1217, looked up)
# Splicing factor 3B subunit 3: MFLYNLTLQRATGISFAIHGNFSGTKQQEIVVSRGKILELLRPDPNTGKVHTLLTVEVFGVIRSLMAFRLTGGTKDYIVVGSDSGRIVILEYQPSKNMFEKIHQETFGKSGCRRIVPGQFLAVDPKGRAVMISAIEKQKLVYILNRDAAARLTISSPLEAHKANTLVYHVVGVDVGFENPMFACLEMDYEEADNDPTGEAAANTQQTLTFYELDLGLNHVVRKYSEPLEEHGNFLITVPGGSDGPSGVLICSENYITYKNFGDQPDIRCPIPRRRNDLDDPERGMIFVCSATHKTKSMFFFLAQTEQGDIFKITLETDEDMVTEIRLKYFDTVPVAAAMCVLKTGFLFVASEFGNHYLYQIAHLGDDDEEPEFSSAMPLEEGDTFFFQPRPLKNLVLVDELDSLSPILFCQIADLANEDTPQLYVACGRGPRSSLRVLRHGLEVSEMAVSELPGNPNAVWTVRRHIEDEFDAYIIVSFVNATLVLSIGETVEEVTDSGFLGTTPTLSCSLLGDDALVQVYPDGIRHIRADKRVNEWKTPGKKTIVKCAVNQRQVVIALTGGELVYFEMDPSGQLNEYTERKEMSADVVCMSLANVPPGEQRSRFLAVGLVDNTVRIISLDPSDCLQPLSMQALPAQPESLCIVEMGGTEKQDELGERGSIGFLYLNIGLQNGVLLRTVLDPVTGDLSDTRTRYLGSRPVKLFRVRMQGQEAVLAMSSRSWLSYSYQSRFHLTPLSYETLEFASGFASEQCPEGIVAISTNTLRILALEKLGAVFNQVAFPLQYTPRKFVIHPESNNLIIIETDHNAYTEATKAQRKQQMAEEMVEAAGEDERELAAEMAAAFLNENLPESIFGAPKAGNGQWASVIRVMNPIQGNTLDLVQLEQNEAAFSVAVCRFSNTGEDWYVLVGVAKDLILNPRSVAGGFVYTYKLVNNGEKLEFLHKTPVEEVPAAIAPFQGRVLIGVGKLLRVYDLGKKKLLRKCENKHIANYISGIQTIGHRVIVSDVQESFIWVRYKRNENQLIIFADDTYPRWVTTASLLDYDTVAGADKFGNICVVRLPPNTNDEVDEDPTGNKALWDRGLLNGASQKAEVIMNYHVGETVLSLQKTTLIPGGSESLVYTTLSGGIGILVPFTSHEDHDFFQHVEMHLRSEHPPLCGRDHLSFRSYYFPVKNVIDGDLCEQFNSMEPNKQKNVSEELDRTPPEVSKKLEDIRTRYAF
# Tested on: 3×MBT domain of L3MBTL1
# Test: Triple SILAC pull-down, 3xMBT/3xMBTD355N ratio (cytoplasmic, nuclear and chromatin fractions of 293T cells);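 note: proteins quantified with MaxQuant, requiring at least two unique peptides and quantification in both label directions, normalized to the mean of proteins from a digested loading control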
# Type: binding, human
# Details: SILAC ratio, pull-down 3xMBT vs 3xMBTD355N; experiment with UNC0638 in heavy SILAC media
# Protocol: For stable isotope labeling by amino acids in cell culture (SILAC) experiments HEK 293T cells were grown for at least six doublings in DMEM for SILAC supplemented with 10% dialyzed fetal bovine serum (FBS), 230 mg/L L-proline and either 100 mg/L each of L-lysine and L-arginine (“light” medium), D4-L-lysine and ^13C6-L-arginine (“medium” media), or ^13C6^15N2-L-lysine and ^13C6^15N4-L-arginine (Thermo Scientific). Heavy methyl labeling used DMEM without L-Methionine or L-Cysteine supplemented with D3^13C-L-Methionine (Sigma), L-Cysteine (Sigma) and 10% dialyzed FBS.
# (§1) For UNC0638 treatments cells were treated for 24 hours with UNC0638 at 2.5 μM or DMSO vehicle control. One experiment treated cells in light media with UNC0638, the other treated cells in heavy media. Both experiments included cells in medium media treated with DMSO for negative control pull-down with 3×MBTD355N.
# UNC0638 treatment experiments used a Q-Exactive mass spectrometer (ThermoFisher Scientific). A 25 cm HPLC column with 3 μm Reliasil (Orochem) was used to separate peptides over a 4 hour gradient from 0 to 75% acetonitrile. Ions were generated using a custom nanospray source flowing at 250 nL/minute. Mass spectrometry settings were 70,000 MS1 resolution, data dependent selection of up to 20 precursor ions per cycle, dynamic exclusion of 30 seconds and isolation window of 2 m/z. The nuclear fraction from the experiment using UNC0638 on cells in heavy media was additionally analyzed by 2D HPLC-MS/MS as described earlier.
# Peptides were identified and quantified using MaxQuant version 1.2.2.5 (Cox and Mann, supra) with the following changes to default settings: mono- and di-methylation of lysine, and oxidation of methionine, and N-terminal acetylation as variable modifications, disabled “I=L”, up to three modifications per peptide, one missed cleavage, maximum charge of 5. Protein and peptide FDR were set to 1%, and proteins were filtered post-hoc for at least two unique peptides. Proteins were excluded from an experiment if they were not quantified in both labeling directions. Because FDR is unreliable for small numbers of peptides the modification site FDR was set to 10% and all methylated peptides were manually verified. […] Quantitative protein data was normalized to the mean value among proteins identified by analyzing 50 ng of digested loading control.
# (§2) For UNC0638 experiments the treated vs. untreated ratio was determined by subtracting the value from 3×MBTD355N prior to dividing values from the light and heavy channels. Only proteins showing a two-fold signal to background ratio (3×MBT/3×MBTD355N) were evaluated as potential G9a/GLP substrates.
row,Molecule,3xMBT/D355N UNC Heavy
1,B1,2.23 log base 2
2,B2,2.59 log base 2
3,B3,2.07 log base 2
4,B4,2.19 log base 2
5,B5,2.48 log base 2

# Same assay, conditions: SILAC ratio, pull-down 3xMBT vs 3xMBTD355N; experiment with UNC0638 in light SILAC media
row,Molecule,3xMBT/D355N UNC Light
1,B1,2.96 log base 2
2,B2,2.49 log base 2
3,B3,3.81 log base 2
4,B4,4.01 log base 2
5,B5,2.08 log base 2

# Biological target: T1, G9a and GLP (Homo sapiens, UniProt Q96KQ7+Q9H9B1)
# T1 sequence (Q96KQ7 2-1210 limits assumed): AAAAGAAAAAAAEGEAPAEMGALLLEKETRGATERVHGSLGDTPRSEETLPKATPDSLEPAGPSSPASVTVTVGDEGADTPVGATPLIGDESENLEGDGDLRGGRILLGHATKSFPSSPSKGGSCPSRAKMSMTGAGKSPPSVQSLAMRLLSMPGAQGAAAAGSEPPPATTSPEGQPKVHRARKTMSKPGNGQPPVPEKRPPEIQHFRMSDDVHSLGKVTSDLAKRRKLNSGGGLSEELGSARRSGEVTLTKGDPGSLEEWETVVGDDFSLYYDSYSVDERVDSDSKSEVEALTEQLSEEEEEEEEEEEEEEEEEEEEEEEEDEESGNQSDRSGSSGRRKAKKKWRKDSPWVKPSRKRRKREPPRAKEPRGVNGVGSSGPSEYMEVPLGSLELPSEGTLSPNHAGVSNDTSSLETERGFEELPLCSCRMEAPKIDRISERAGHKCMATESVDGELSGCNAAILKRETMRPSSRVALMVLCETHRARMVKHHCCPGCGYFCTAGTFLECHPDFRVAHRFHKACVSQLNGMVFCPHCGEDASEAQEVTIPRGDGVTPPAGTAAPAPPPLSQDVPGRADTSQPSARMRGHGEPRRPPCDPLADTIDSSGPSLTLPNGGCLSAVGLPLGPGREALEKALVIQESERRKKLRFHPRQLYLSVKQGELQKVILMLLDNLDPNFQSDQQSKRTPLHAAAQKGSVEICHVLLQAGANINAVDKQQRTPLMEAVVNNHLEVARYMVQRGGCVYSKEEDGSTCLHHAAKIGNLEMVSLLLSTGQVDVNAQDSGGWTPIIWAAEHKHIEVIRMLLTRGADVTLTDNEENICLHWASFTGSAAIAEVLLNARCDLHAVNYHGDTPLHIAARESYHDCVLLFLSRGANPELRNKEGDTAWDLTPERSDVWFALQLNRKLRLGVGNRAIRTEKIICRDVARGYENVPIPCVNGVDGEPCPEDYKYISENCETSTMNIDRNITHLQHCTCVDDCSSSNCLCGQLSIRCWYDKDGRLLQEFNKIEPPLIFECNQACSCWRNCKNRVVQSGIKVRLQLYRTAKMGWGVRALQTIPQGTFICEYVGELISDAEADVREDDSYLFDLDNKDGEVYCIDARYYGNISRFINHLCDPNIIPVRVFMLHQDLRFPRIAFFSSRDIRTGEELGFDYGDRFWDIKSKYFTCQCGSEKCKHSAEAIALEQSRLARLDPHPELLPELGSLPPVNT
# T1 sequence (Q9H9B1 2-1298 limits assumed): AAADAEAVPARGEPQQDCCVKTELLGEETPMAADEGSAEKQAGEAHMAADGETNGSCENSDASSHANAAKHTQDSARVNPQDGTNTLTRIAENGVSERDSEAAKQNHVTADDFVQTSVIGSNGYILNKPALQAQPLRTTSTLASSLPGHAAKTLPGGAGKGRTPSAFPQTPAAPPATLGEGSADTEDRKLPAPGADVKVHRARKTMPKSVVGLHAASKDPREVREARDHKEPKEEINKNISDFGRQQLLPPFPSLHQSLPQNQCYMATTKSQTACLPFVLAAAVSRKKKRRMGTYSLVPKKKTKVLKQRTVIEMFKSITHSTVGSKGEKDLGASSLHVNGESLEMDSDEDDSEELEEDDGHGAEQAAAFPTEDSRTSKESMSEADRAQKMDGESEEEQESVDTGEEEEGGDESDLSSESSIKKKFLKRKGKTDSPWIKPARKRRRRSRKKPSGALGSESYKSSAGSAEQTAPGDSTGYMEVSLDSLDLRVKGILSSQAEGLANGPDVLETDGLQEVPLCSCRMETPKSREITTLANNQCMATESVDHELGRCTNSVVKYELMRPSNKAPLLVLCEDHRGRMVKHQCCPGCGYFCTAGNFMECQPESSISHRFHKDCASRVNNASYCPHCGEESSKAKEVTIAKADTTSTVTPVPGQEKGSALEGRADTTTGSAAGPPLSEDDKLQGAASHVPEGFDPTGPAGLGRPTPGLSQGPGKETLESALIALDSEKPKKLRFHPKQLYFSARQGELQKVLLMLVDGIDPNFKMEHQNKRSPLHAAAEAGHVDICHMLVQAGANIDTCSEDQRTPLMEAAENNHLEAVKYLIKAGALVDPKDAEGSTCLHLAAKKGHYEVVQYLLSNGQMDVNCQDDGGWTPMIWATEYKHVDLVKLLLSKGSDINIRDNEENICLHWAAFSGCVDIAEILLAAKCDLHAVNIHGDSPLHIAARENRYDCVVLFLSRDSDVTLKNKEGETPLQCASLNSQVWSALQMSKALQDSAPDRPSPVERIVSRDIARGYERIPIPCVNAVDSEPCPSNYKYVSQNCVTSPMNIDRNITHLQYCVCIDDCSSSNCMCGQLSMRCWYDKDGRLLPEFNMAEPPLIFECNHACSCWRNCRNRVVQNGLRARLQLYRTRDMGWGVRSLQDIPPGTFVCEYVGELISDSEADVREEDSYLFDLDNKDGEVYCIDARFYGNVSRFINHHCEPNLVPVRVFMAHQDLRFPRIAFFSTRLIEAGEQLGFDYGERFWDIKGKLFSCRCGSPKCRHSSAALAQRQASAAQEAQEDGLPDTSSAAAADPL
# Test: Triple SILAC pull-down after UNC0638 treatment of 293T cells, DMSO/UNC0638 ratio of protein captured by 3×MBT;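 note: mass spectrometry (Q-Exactive) SILAC quantitation, DMSO/UNC0638 ratio computed after subtracting 3×MBTD355N mutant pull-down background, only proteins with at least twofold 3×MBT over mutant signal considered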
# Type: cell-based
# Parameters: cells were treated for 24 hours with UNC0638 at 2.5 μM or DMSO vehicle control; endogenous in cells; host or cells: HEK 293T
# Details: SILAC ratio DMSO/UNC0638 of protein pulled down with 3xMBT; UNC0638 in heavy SILAC media
# Protocol: as §1
# UNC0638 treatment experiments used a Q-Exactive mass spectrometer (ThermoFisher Scientific). A 25 cm HPLC column with 3 μm Reliasil (Orochem) was used to separate peptides over a 4 hour gradient from 0 to 75% acetonitrile. Ions were generated using a custom nanospray source flowing at 250 nL/minute. Mass spectrometry settings were 70,000 MS1 resolution, data dependent selection of up to 20 precursor ions per cycle, dynamic exclusion of 30 seconds and isolation window of 2 m/z.
# as §2
row,Molecule,Relative to UNC0638 UNC Heavy
1,B1,0.30 log base 2
2,B2,0.28 log base 2
3,B3,0.03 log base 2
4,B4,0.43 log base 2
5,B5,0.06 log base 2

# Same assay, conditions: SILAC ratio DMSO/UNC0638 of protein pulled down with 3xMBT; UNC0638 in light SILAC media
row,Molecule,Relative to UNC0638 UNC Light
1,B1,0.07 log base 2
2,B2,0.09 log base 2
3,B3,0.34 log base 2
4,B4,1.96 log base 2
5,B5,0.31 log base 2

# Same assay, conditions: average of UNC Light and UNC Heavy experiments
row,Molecule,Relative to UNC0638 Average
1,B1,0.19 log base 2
2,B2,0.18 log base 2
3,B3,0.18 log base 2
4,B4,1.19 log base 2
5,B5,0.18 log base 2

# Same assay, conditions: reduced association with 3xMBT after UNC0638 treatment
row,Molecule,Candidate G9a/GLP target
1,B4,✓
